# Measurements taken from paper PMC8004701, “An Arabidopsis Oxalyl-CoA Decarboxylase, AtOXC, Is Important for Oxalate Catabolism in Plants” (International Journal of Molecular Sciences, 2021).
# Target: the molecule itself
# Assay: SEC; Superdex 200 Increase 10/300 GL, 100 mM sodium phosphate pH 7.5, 100 mM NaCl, 10 mM beta-mercaptoethanol; standards aldolase (158 kDa) and conalbumin (75 kDa); AtOXC eluted at 13.0 mL
protein,measurement,value
"Arabidopsis oxalyl-CoA decarboxylase (AtOXC), His-tagged (enzyme, Arabidopsis thaliana, UniProt Q9LF46 1-572, looked up, Oxalyl-CoA decarboxylase AtOXC, Arabidopsis thaliana, locus At5g17380; full-length cDNA; monomer about 61.5 kDa; No removal of the tag is reported; also called His-AtOXC; His-tagged AtOXC; source: E. coli BLR (DE3), purified (nickel-nitriloacetic acid agarose, desalted on Sephadex G-25)) MADKSETTPPSIDGNVLVAKSLSHLGVTHMFGVVGIPVTSLASRAMALGIRFIAFHNEQSAGYAASAYGYLTGKPGILLTVSGPGCVHGLAGLSNAWVNTWPMVMISGSCDQRDVGRGDFQELDQIEAVKAFSKLSEKAKDVREIPDCVSRVLDRAVSGRPGGCYLDIPTDVLRQKISESEADKLVDEVERSRKEEPIRGSLRSEIESAVSLLRKAERPLIVFGKGAAYSRAEDELKKLVEITGIPFLPTPMGKGLLPDTHEFSATAARSLAIGKCDVALVVGARLNWLLHFGESPKWDKDVKFILVDVSEEEIELRKPHLGIVGDAKTVIGLLNREIKDDPFCLGKSNSWVESISKKAKENGEKMEIQLAKDVVPFNFLTPMRIIRDAILAVEGPSPVVVSEGANTMDVGRSVLVQKEPRTRLDAGTWGTMGVGLGYCIAAAVASPDRLVVAVEGDSGFGFSAMEVETLVRYNLAVVIIVFNNGGVYGGDRRGPEEISGPHKEDPAPTSFVPNAGYHKLIEAFGGKGYIVETPDELKSALAESFAARKPAVVNVIIDPFAGAESGRLQHKN",stoichiometry N,2
